Assay results taken from patent US20250376532A1.

Target: rDR5-IgG4-Fc (UniProt O14763)
Assay: BLI

Kd: 0.102 nM
Substance: AMG655
